Results reported in US20170298146A1 (MODIQUEST B V, published 2017).
Non-standard residues stand in square brackets, D forms with d. No end group written: not given here. Cit = NC(=O)NCCC[C@H](N)C(=O)O

Experiments:
msFibα XG [1] = target: T1, msFibα XG (mouse, X at position 8 is citrulline; biotin label); assay: peptide ELISA, 0.016 ug/well
T1 peptide: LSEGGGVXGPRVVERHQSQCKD
Procedure: (§1) Biotin and citrulline-containing peptides derived from fibrinogen and vimentin were immobilized on NEUTRAVIDIN®-coated 96-well ELISA plates (0.3 μg/well). CFC-1 and CFC-0 were coated at the same concentration and served as positive and negative controls respectively for specific anti-citrulline reactivity and as coating controls. Non-coated wells were used to test for aspecific binding of the antibodies. […] Detection of bound anti-citrulline antibodies was performed by incubating the wells with rabbit-anti-human-HRP (1:2000) for one hour at RT followed by incubation with TMB substrate. The resulting OD (y-axis) is a measure for antibody binding.
(§2) Biotin-labeled and citrulline-containing fibrinogen and vimentin peptides (Table 5) were also tested for reactivity with the therapeutic antibodies. Peptides were coated on 96-well NEUTRAVIDIN®-ELISA plates.

huFibα XG [2] = target: T2, huFibα XG (human, X at position 8 is citrulline; biotin label); assay: peptide ELISA, 0.016 ug/well
T2 peptide: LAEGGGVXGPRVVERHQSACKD
Procedure: as §1, §2

msVim XS/XL [3] = target: T3, msVim XS/XL (mouse, also: biotin label); assay: peptide ELISA, 0.016 ug/well
T3 construct: also called mouse vimentin peptide
T3 peptide: YVT[Cit]SSAV[Cit]L[Cit]SSVP
Procedure: as §1, §2

CFC-1 [4] = target: T4, CFC-1; assay: peptide ELISA, 0.016 ug/well
T4 construct: Positive control for anti-citrulline reactivity; also called cfc1 XG
Procedure: as §1, §2

huFibα XH [5] = target: T5, huFibα XH (human, X at position 15 is citrulline; biotin label); assay: peptide ELISA, 0.016 ug/well
T5 peptide: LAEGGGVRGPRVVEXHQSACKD
Procedure: as §1, §2

msFibα XH [6] = target: T6, msFibα XH (mouse, X at position 15 is citrulline; biotin label); assay: peptide ELISA, 0.016 ug/well
T6 peptide: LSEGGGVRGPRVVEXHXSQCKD
Procedure: as §1, §2

msFibβ XG [7] = target: T7, msFibβ XG (mouse, also: biotin label); assay: peptide ELISA, 0.016 ug/well
T7 peptide: EPTDSLDA[Cit]GHRPVDRR
Procedure: as §1, §2

msFibα XG [8] = target: T1, msFibα XG; assay: peptide ELISA, 0.00064 ug/well
Procedure: as §1, §2

huFibα XG [9] = target: T2, huFibα XG; assay: peptide ELISA, 0.00064 ug/well
Procedure: as §1, §2

msVim XS/XL [10] = target: T3, msVim XS/XL; assay: peptide ELISA, 0.00064 ug/well
Procedure: as §1, §2

CFC-1 [11] = target: T4, CFC-1; assay: peptide ELISA, 0.00064 ug/well
Procedure: as §1, §2

huFibα XH [12] = target: T5, huFibα XH; assay: peptide ELISA, 0.00064 ug/well
Procedure: as §1, §2

msFibα XH [13] = target: T6, msFibα XH; assay: peptide ELISA, 0.00064 ug/well
Procedure: as §1, §2

msFibβ XG [14] = target: T7, msFibβ XG; assay: peptide ELISA, 0.00064 ug/well
Procedure: as §1, §2

[15] = target: T8, Histone 2A citrulline-containing peptide 7 (human, also: biotin label); assay: peptide ELISA, 2 ug/well
T8 peptide: GNYSE[Cit]VGAGAP
Procedure: as §1, with “histone 2A” for “fibrinogen and vimentin”
(§3) Ninety-six-well ELISA plates were coated with NEUTRAVIDIN® (0.1 μg/well) by overnight incubation at 4° C. Wells were washed five times with PBS-TWEEN®-20 (PBS-T) and blocked by a one-hour incubation with PBS-T+1% Bovine serum albumin (BSA) at room temperature (RT). After five more washes with PBS-T, wells were incubated for one hour at RT with histone-derived citrulline and biotin-containing peptides (0.3 μg/well). […] Wells were washed five times with PBS-T and incubated with rabbit-anti-human-HRP (1:2000) for one hour at RT followed by five washes with PBS-T and three wash steps with PBS. Wells were incubated for five minutes with TMB substrate before stopping the reaction with 2 M H₂SO₄. Optical density was measured by 450 nm and is a measure for the affinity of the antibodies used.

[16] = target: T9, Histone 2A citrulline-containing peptide 12 (human, also: biotin label); assay: peptide ELISA, 2 ug/well
T9 peptide: NKLLG[Cit]VTIAQG
Procedure: as §1, with “histone 2A” for “fibrinogen and vimentin”
as §3

[17] = target: T10, Histone 2A citrulline-containing peptide 1 (human, also: biotin label); assay: peptide ELISA, 2 ug/well
T10 construct: also called AAASGXGKQGGK
T10 peptide: AAASG[Cit]GKQGGK
Procedure: as §1, with “histone 2A” for “fibrinogen and vimentin”
as §3

[18] = target: T11, Histone 2A citrulline-containing peptide 10 (human, also: biotin label); assay: peptide ELISA, 2 ug/well
T11 peptide: TRIIP[Cit]HLQLAI
Procedure: as §1, with “histone 2A” for “fibrinogen and vimentin”
as §3

[19] = target: T12, Histone 2A citrulline-containing peptide 5 (human, also: biotin label); assay: peptide ELISA, 2 ug/well
T12 peptide: VGRVH[Cit]LLRKGN
Procedure: as §1, with “histone 2A” for “fibrinogen and vimentin”
as §3

[20] = target: T13, Histone 2A citrulline-containing peptide 8 (human, also: biotin label); assay: peptide ELISA, 2 ug/well
T13 peptide: AGNAA[Cit]DNKKTR
Procedure: as §1, with “histone 2A” for “fibrinogen and vimentin”
as §3

[21] = target: T14, Histone 2A citrulline-containing peptide 11 (human, also: biotin label); assay: peptide ELISA, 2 ug/well
T14 peptide: LQLAI[Cit]NDEELN
Procedure: as §1, with “histone 2A” for “fibrinogen and vimentin”
as §3

[22] = target: T15, Histone 2A citrulline-containing peptide 3 (human, also: biotin label); assay: peptide ELISA, 2 ug/well
T15 peptide: KSRSS[Cit]AGLQFP
Procedure: as §1, with “histone 2A” for “fibrinogen and vimentin”
as §3

[23] = target: T16, Histone 2A citrulline-containing peptide 6 (human, also: biotin label); assay: peptide ELISA, 2 ug/well
T16 peptide: VHRLL[Cit]KGNYSE
Procedure: as §1, with “histone 2A” for “fibrinogen and vimentin”
as §3

[24] = target: T17, Histone 2A citrulline-containing peptide 9 (human, also: biotin label); assay: peptide ELISA, 2 ug/well
T17 peptide: DNKKT[Cit]IIPRHL
Procedure: as §1, with “histone 2A” for “fibrinogen and vimentin”
as §3

[25] = target: T8, Histone 2A citrulline-containing …; assay: peptide ELISA, 0.4 ug/well
Procedure: as §1, with “histone 2A” for “fibrinogen and vimentin”
as §3

[26] = target: T14, Histone 2A citrulline-containing …; assay: peptide ELISA, 0.4 ug/well
Procedure: as §1, with “histone 2A” for “fibrinogen and vimentin”
as §3

B1: RhmAb2.102 (antibody, human IgG1, lambda)
heavy: not shown
light: QSVLTQPPSMSAAPGQKVTISCSGSSSNIGNNYVSWYQQVPGTAPKLLIYDDNKRPSGIPGRFSGSKSATSATLGITGLQAGDEADYYCGSWDDNLSVVLFGGGTKLTVLGQPKAAPSVTLFPPSSEELQANKATLVCLISDFYPGAVTVAWKADSSPVKAGVETTTPSKQSNNKYAASSYLSLTPEQWKSHRSYSCQVTHEGSTVEKTVAPTECS
notes: Human IgG1 lambda; also called Rhm2.102
msFibα XG [1]
  OD: 0.107 OD
huFibα XG [2]
  OD: 0.103 OD
msVim XS/XL [3]
  OD: 0.201 OD
CFC-1 [4]
  OD: 1.22 OD
huFibα XH [5]
  OD: 0.08 OD
msFibα XH [6]
  OD: 0.081 OD
msFibβ XG [7]
  OD: 0.174 OD
msFibα XG [8]
  OD: 0.116 OD
huFibα XG [9]
  OD: 0.125 OD
msVim XS/XL [10]
  OD: 0.154 OD
CFC-1 [11]
  OD: 0.345 OD
huFibα XH [12]
  OD: 0.124 OD
msFibα XH [13]
  OD: 0.088 OD
msFibβ XG [14]
  OD: 0.133 OD
[15]
  OD: 0.059 OD
[16]
  OD: 0.067 OD
[17]
  OD: 3.05 OD
[18]
  OD: 0.07 OD
[19]
  OD: 0.111 OD
[20]
  OD: 0.06 OD
[21]
  OD: 0.067 OD
[22]
  OD: 0.286 OD
[23]
  OD: 0.752 OD
[24]
  OD: 0.063 OD
[25]
  OD: 0.064 OD
[26]
  OD: 0.064 OD
